Reference: the supplement of paper PMC10567573

B1: FAM46C (parent)
chain: VRSRLEEAGIKVHDVRLNGSAAGH
B2: TRAF3IP2 (parent)
chain: FMEKRNQWLVSQLSAASPDTGHDS

Variants of: B1
Experiment: protein stability index of a GFP-peptide fusion (GPS, HEK-293T) (PSI 1-6); higher = more stable
Conditions: c terminus: a fixed tail appended
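Also: lentivirally expressed fusions sorted by FACS into six bins by GFP to DsRed ratio, PSI derived from sequencing read proportions per bin multiplied by bin number.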

| Variant | protein stability index |
| --- | --- |
| VRSRLEEAGIKVHDVRLNGSASGH | 2.17 |
| VRSRLEEAGIKVHDVRLNGSAFGH | 1.25 |
| VRSRLEEAGIKVHDVRLNGSAEGH | 2.12 |
| VRSRLEEAGIKVHDVRLNGSAYGH | 1.94 |
| VRSRLEEAGIKVHDVRLNGSAQGH | 2.1 |
| VRSRLEEAGIKVHDVRLNGSAGGH | 2.86 |
| VRSRLEEAGIKVHDVRLNGSACGH | 1.65 |
| VRSRLEEAGIKVHDVRLNGSAMGH | 2.66 |
| VRSRLEEAGIKVHDVRLNGSAVGH | 3.25 |
| VRSRLEEAGIKVHDVRLNGSAIGH | 2.74 |
| VRSRLEEAGIKVHDVRLNGSANGH | 2.25 |
| VRSRLEEAGIKVHDVRLNGSAWGH | 2.68 |
| VRSRLEEAGIKVHDVRLNGSARGH | 2.17 |
| VRSRLEEAGIKVHDVRLNGSAPGH | 2.37 |
| VRSRLEEAGIKVHDVRLNGSAAGW | 3.51 |
| VRSRLEEAGIKVHDVRLNGSAAGD | 2.7 |
| VRSRLEEAGIKVHDVRLNGSAAGS | 3.07 |
| VRSRLEEAGIKVHDVRLNGSAAGP | 2.76 |
| VRSRLEEAGIKVHDVRLNGSAAGE | 3.66 |
| VRSRLEEAGIKVHDVRLNGSAAGA | 3.06 |
| VRSRLEEAGIKVHDVRLNGSAAGI | 2.01 |
| VRSRLEEAGIKVHDVRLNGSAAGQ | 2.67 |
| VRSRLEEAGIKVHDVRLNGSAAGM | 2.15 |
| VRSRLEEAGIKVHDVRLNGSAAGN | 3.78 |

| Variant | protein stability index |
| --- | --- |
| VRSRLEEAGILVHDVRLNGSAAGH | 3.83 |
| VRSRLEEAGIVVHDVRLNGSAAGH | 2.36 |
| VRSRLEEAGIMVHDVRLNGSAAGH | 2.01 |
| VRSRLEEAGISVHDVRLNGSAAGH | 3.76 |
| VRSRLEEAGIWVHDVRLNGSAAGH | 2.69 |
| VRSRLEEAGINVHDVRLNGSAAGH | 3.82 |
| VRSRLEEAGITVHDVRLNGSAAGH | 4.08 |
| VRSRLEEAGIQVHDVRLNGSAAGH | 2.74 |
| VRSRLEEAGIKVHTVRLNGSAAGH | 2.8 |
| VRSRLEEAGIKVHIVRLNGSAAGH | 1.29 |
| VRSRLEEAGIKVHLVRLNGSAAGH | 2.43 |
| VRSRLEEAGIKVHQVRLNGSAAGH | 2.56 |
| VRSRLEEAGIKVHWVRLNGSAAGH | 1.62 |
| VRSRLEEAGIKVHMVRLNGSAAGH | 1.79 |
| VRSRLEEAGIKVHPVRLNGSAAGH | 4.54 |
| VRSRLEEAGIKVHSVRLNGSAAGH | 2.64 |
| VRSRLEEAGIKVHCVRLNGSAAGH | 2.33 |
| VRSRLEEAGIKVHHVRLNGSAAGH | 3.04 |
| VRSRLEEAGIKVHYVRLNGSAAGH | 2.74 |
| VRSRLEEAGIKVHEVRLNGSAAGH | 2.4 |
| VRSRLEEAGIKVHDVRLNGGAAGH | 1.94 |
| VRSRLEEAGIKVHDVRLNGPAAGH | 1.95 |
| VRSRLEEAGIKVHDVRLNGQAAGH | 2.63 |
| VRSRLEEAGIKVHDVRLNGVAAGH | 2.61 |

| Variant | protein stability index |
| --- | --- |
| VRSRLEEAGIKVHDVRLNGTAAGH | 1.56 |
| VRSRLEEAGIKVHDVRLNGKAAGH | 2.28 |
| VRSRLEEAGIKVHDVRLNGLAAGH | 2 |
| VRSRLEEAGIKVHDVRLNGCAAGH | 2.45 |
| VRSRLEEAGIKVHDVRLNGFAAGH | 1.35 |
| VRSRLEEAGIKVHDVRLNGNAAGH | 3.2 |
| VRSRLEEAGIKVHDVRLNGAAAGH | 2.61 |
| VRSRLEEAGIKVHDVRLNGHAAGH | 2.16 |
| VRSRLEEAGIKVHDVELNGSAAGH | 4.63 |
| VRSRLEEAGIKVHDVFLNGSAAGH | 2.25 |
| VRSRLEEAGIKVHDVVLNGSAAGH | 2.63 |
| VRSRLEEAGIKVHDVHLNGSAAGH | 2.54 |
| VRSRLEEAGIKVHDVYLNGSAAGH | 2.64 |
| VRSRLEEAGIKVHDVQLNGSAAGH | 2.68 |
| VRSRLEEAGIKVHDVKLNGSAAGH | 2.49 |
| VRSRLEEAGIKVHDVSLNGSAAGH | 2.68 |
| VRSRLEEAGIKVHDVDLNGSAAGH | 4.37 |
| VRSRLEEAGIKVHDVWLNGSAAGH | 1.66 |
| VRSRLEEAGIKVYDVRLNGSAAGH | 1.25 |
| VRSRLEEAGIKVSDVRLNGSAAGH | 1.19 |
| VRSRLEEAGIKVFDVRLNGSAAGH | 1.74 |
| VRSRLEEAGIKVTDVRLNGSAAGH | 1.86 |
| VRSRLEEAGIKVNDVRLNGSAAGH | 2.74 |
| VRSRLEEAGIKVIDVRLNGSAAGH | 1.03 |

| Variant | protein stability index |
| --- | --- |
| VRSRLEEAGIKVDDVRLNGSAAGH | 1.02 |
| VRSRLEEAGIKVGDVRLNGSAAGH | 4.18 |
| VRSRLEEAGIKVEDVRLNGSAAGH | 4.06 |
| VRSRLEEAGIKVKDVRLNGSAAGH | 2.02 |
| VRSRLEEAGIKVWDVRLNGSAAGH | 2.02 |
| VRSRLEEAGIKVRDVRLNGSAAGH | 2.32 |
| VRSRLEEAGIKVADVRLNGSAAGH | 2.98 |
| VRSRLEEAGIKVPDVRLNGSAAGH | 4.08 |
| VRSRLEEAGIKVMDVRLNGSAAGH | 1.53 |
| VRSRLEEAGIKVQDVRLNGSAAGH | 2.42 |
| VRSRLEEAGIKVHDVRLTGSAAGH | 1.87 |
| VRSRLEEAGIKVHDVRLSGSAAGH | 4.1 |
| VRSRLEEAGIKVHDVRLMGSAAGH | 3.59 |
| VRSRLEEAGIKVHDVRLKGSAAGH | 3.56 |
| VRSRLEEAGIKVHDVRLYGSAAGH | 1.62 |
| VRSRLEEAGIKVHDVRLWGSAAGH | 2.13 |
| VRSRLEEAGIKVHDVRLDGSAAGH | 2.81 |
| VRSRLEEAGIKVHDVRLGGSAAGH | 2.02 |
| VRSRLEEAGIKVHDVRLQGSAAGH | 1.96 |
| VRSRLEEAGIKVHDVRLCGSAAGH | 2.64 |
| VRSRLEEAGIKVHDVRLEGSAAGH | 1.53 |
| VRSRLEEAGIKVHDVRLPGSAAGH | 3.12 |
| VRSRLEEAGIKVHDVRLLGSAAGH | 1.16 |
| VRSRLEEAGIKVHDVRLVGSAAGH | 2.7 |

| Variant | protein stability index |
| --- | --- |
| VRSRLEEAGIKVHDVRQNGSAAGH | 4.23 |
| VRSRLEEAGIKVHDVRVNGSAAGH | 2.67 |
| VRSRLEEAGIKVHDVRANGSAAGH | 3.15 |
| VRSRLEEAGIKVHDVRKNGSAAGH | 4.53 |
| VRSRLEEAGIKVHDVRRNGSAAGH | 3.52 |
| VRSRLEEAGIKVHDVRSNGSAAGH | 4.33 |
| VRSRLEEAGIKVHDVRNNGSAAGH | 3.75 |
| VRSRLEEAGIKVHDVRPNGSAAGH | 2.6 |
| VRSRLEEAGIKVHDVRCNGSAAGH | 2.61 |
| VRSRLEEAGIKVHDVRENGSAAGH | 4.2 |
| VRSRLEEAGIKVHDVRINGSAAGH | 2.53 |
| VRSRLEEAGIKVHDVRDNGSAAGH | 4 |
| VRSRLEEAGIKVHDVRGNGSAAGH | 4.55 |
| VRSRLEEAGIKVHDVRFNGSAAGH | 2.47 |
| VRSRLEEAGIKMHDVRLNGSAAGH | 3.25 |
| VRSRLEEAGIKGHDVRLNGSAAGH | 4.04 |
| VRSRLEEAGIKRHDVRLNGSAAGH | 4.44 |
| VRSRLEEAGIKPHDVRLNGSAAGH | 4.06 |
| VRSRLEEAGIKHHDVRLNGSAAGH | 3.6 |
| VRSRLEEAGIKYHDVRLNGSAAGH | 3.33 |
| VRSRLEEAGIKQHDVRLNGSAAGH | 4.06 |
| VRSRLEEAGIKSHDVRLNGSAAGH | 3.93 |
| VRSRLEEAGIKLHDVRLNGSAAGH | 2.56 |
| VRSRLEEAGIKKHDVRLNGSAAGH | 4.25 |

| Variant | protein stability index |
| --- | --- |
| VRSRLEEAGIKFHDVRLNGSAAGH | 3.04 |
| VRSRLEEAGIKAHDVRLNGSAAGH | 3.93 |
| VRSRLEEAGIKEHDVRLNGSAAGH | 4.73 |
| VRSRLEEAGIKWHDVRLNGSAAGH | 2.77 |
| VRSRLEEAGIKTHDVRLNGSAAGH | 2.29 |
| VRSRLEEAGIKIHDVRLNGSAAGH | 2.67 |
| VRSRLEEAGIKNHDVRLNGSAAGH | 4.04 |
| VRSRLEEAGIKVHDVRLNGSIAGH | 2.44 |
| VRSRLEEAGIKVHDVRLNGSTAGH | 2.51 |
| VRSRLEEAGIKVHDVRLNGSCAGH | 1.73 |
| VRSRLEEAGIKVHDVRLNGSPAGH | 1.8 |
| VRSRLEEAGIKVHDVRLNGSGAGH | 3.12 |
| VRSRLEEAGIKVHDVRLNGSQAGH | 1.72 |
| VRSRLEEAGIKVHDVRLNGSYAGH | 1.56 |
| VRSRLEEAGIKVHDVRLNGSEAGH | 2.53 |
| VRSRLEEAGIKVHDVRLNGSDAGH | 3.13 |
| VRSRLEEAGIKVHDVRLNGSKAGH | 4.25 |
| VRSRLEEAGIKVHDVRLNGSSAGH | 2.32 |
| VRSRLEEAGIKVHDVRLNGSWAGH | 1.56 |
| VRSRLEEAGIKVHDVRLNGSRAGH | 2.83 |
| VRSRLEEAGIKVHDARLNGSAAGH | 4.24 |
| VRSRLEEAGIKVHDDRLNGSAAGH | 5.04 |
| VRSRLEEAGIKVHDKRLNGSAAGH | 3.44 |
| VRSRLEEAGIKVHDIRLNGSAAGH | 2.06 |

| Variant | protein stability index |
| --- | --- |
| VRSRLEEAGIKVHDPRLNGSAAGH | 3.65 |
| VRSRLEEAGIKVHDHRLNGSAAGH | 4.22 |
| VRSRLEEAGIKVHDMRLNGSAAGH | 3.41 |
| VRSRLEEAGIKVHDNRLNGSAAGH | 3.62 |
| VRSRLEEAGIKVHDSRLNGSAAGH | 3.35 |
| VRSRLEEAGIKVHDERLNGSAAGH | 3.27 |
| VRSRLEEAGIKVHDFRLNGSAAGH | 3.57 |
| VRSRLEEAGIKVHDYRLNGSAAGH | 2.61 |
| VRSRLEEAGIKVHDCRLNGSAAGH | 2.42 |
| VRSRLEEAGIKVHDRRLNGSAAGH | 3.75 |
| VRSRLEEAGIKVHDLRLNGSAAGH | 2.76 |
| VRSRLEEAGIKVHDVRLNRSAAGH | 2.22 |
| VRSRLEEAGIKVHDVRLNVSAAGH | 1.79 |
| VRSRLEEAGIKVHDVRLNFSAAGH | 2.44 |
| VRSRLEEAGIKVHDVRLNASAAGH | 2.19 |
| VRSRLEEAGIKVHDVRLNTSAAGH | 1.74 |
| VRSRLEEAGIKVHDVRLNQSAAGH | 2.74 |
| VRSRLEEAGIKVHDVRLNLSAAGH | 2.16 |
| VRSRLEEAGIKVHDVRLNSSAAGH | 2.09 |
| VRSRLEEAGIKVHDVRLNISAAGH | 3.83 |
| VRSRLEEAGIKVHDVRLNPSAAGH | 1.55 |
| VRSRLEEAGIKVHDVRLNHSAAGH | 2.54 |
| VRSRLEEAGIKVHDVRLNDSAAGH | 2.26 |
| VRSRLEEAGIKVHDVRLNESAAGH | 3.77 |

| Variant | protein stability index |
| --- | --- |
| VRSRLEEAGIKVHDVRLNMSAAGH | 1.83 |
| VRSRLEEAGIKVHDVRLNGSAAHH | 2.85 |
| VRSRLEEAGIKVHDVRLNGSAANH | 2.55 |
| VRSRLEEAGIKVHDVRLNGSAAMH | 1.62 |
| VRSRLEEAGIKVHDVRLNGSAADH | 2.44 |
| VRSRLEEAGIKVHDVRLNGSAAVH | 1.82 |
| VRSRLEEAGIKVHDVRLNGSAAYH | 2.18 |
| VRSRLEEAGIKVHDVRLNGSAAKH | 2.25 |
| VRSRLEEAGIKVHDVRLNGSAATH | 3.09 |
| VRSRLEEAGIKVHDVRLNGSAASH | 2.6 |
| VRSRLEEAGIKVHDVRLNGSAAFH | 2.94 |
| VRSRLEEAGIKVHDVRLNGSAARH | 2.38 |
| VRSRLEEAGIKVHDVRLNGSAAWH | 2.18 |
| VRSRLEEAGIKVHDVRLNGSAAQH | 1.2 |
| VRSRLEEAGIKVHDVRLNGSAAIH | 1.6 |
| VRSRLEEAGIKVHDVRLNGSAAAH | 2.92 |
| VRSRLEEAGIKVHDVRLNGSAACH | 1.64 |
| VRSRLEEAGIKVHDVRLNGSAALH | 1.64 |
| VRSRLEEAGIKVHDVRLNGSAAEH | 2.3 |

Variants of: B2
Experiment: as above
Conditions: c terminus: a fixed tail appended

| Variant | protein stability index |
| --- | --- |
| AMEKRNQWLVSQLSAASPDTGHDS | 4.91 |
